# From article PMC6290019 (2018)
# Numbering of substitutions follows the chain as printed.
# T1: Im^des7
# T1 chain: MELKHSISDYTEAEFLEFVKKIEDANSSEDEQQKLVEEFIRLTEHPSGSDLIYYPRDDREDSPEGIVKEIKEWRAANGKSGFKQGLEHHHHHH
# T2: Im^wt2 (Escherichia coli, UniProt P04482 1-86)
# T2 chain: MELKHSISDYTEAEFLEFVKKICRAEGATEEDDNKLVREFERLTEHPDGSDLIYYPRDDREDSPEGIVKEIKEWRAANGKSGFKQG
# T3: Im^des8
# T3 chain: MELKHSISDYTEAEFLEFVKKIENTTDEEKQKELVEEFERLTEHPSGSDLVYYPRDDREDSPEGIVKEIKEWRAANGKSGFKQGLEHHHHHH
# T4: Im^des3
# T4 chain: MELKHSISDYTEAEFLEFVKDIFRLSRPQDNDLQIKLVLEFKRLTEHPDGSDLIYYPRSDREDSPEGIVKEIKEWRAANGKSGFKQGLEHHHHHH
# B1: Im^des4 (designed binder)
# chain: MELKHSISDYTEAEFLEFVKKIDLASSGGGGNELLSRALVEEFERLTEHPDGSDLIYYPRDDREDSPEGIVKEIKEWRAANGKSGFKQGLEHHHHHH
# B2: colE^des7 (designed binder)
# chain: MESKRNKPGKATGKGKPVGDKWLDDAGKDSGAPIPDRIADKLRDKEFKNFDDFRKKFWEEVSKDPDLAKQFKRSNRKRIQQGYAPFAPQKDQVGGRTTFELHHDKPISQDGGVYDMNNIRVTTPKRAIDIHRGK
# B3: Im^des6 (designed binder)
# chain: MELKHSISDYTEAEFLEFVKKIFSQGRLEETRPLVEEFERLTEHPDGSDLVYYPRDDREDSPEGIVKEIKEWRAANGKSGFKQGLEHHHHHH
# B4: colE^wt2 (His127Ala) (enzyme)
# chain: MESKRNKPGKATGKGKPVGDKWLDDAGKDSGAPIPDRIADKLRDKEFKNFDDFRKKFWEEVSKDPDLSKQFKGSNKTNIQKGKAPFARKKDQVGGRERFELHHDKPISQDGGVYDMNNIRVTTPKRAIDIHRGK
# B5: Im^des5 (designed binder)
# chain: T3 chain with E23C, T26D, D27N, E29N, K30V, K32F, E33K, E36T, S46D, V51I
# B6: Im^des2 (designed binder)
# chain: T3 chain with E23Y, T25S, E36T, V51I
# B7: colE^des3 (designed binder)
# chain: MESKRNKPGKATGKGKPVGDKWLDDAGKDSGAPIPDRIADKLRDKEFKNFDDFRKKFWKEVAKDPDLAKQFSKANQRNIKDGNAPFARESDQVGGRTTYELHHDKPISQDGGVYDMNNIRVTTPKRAIDIHRGK
# B8: Im^des1 (designed binder)
# chain: MELKHSISDYTEAEFLEFVKKIYSKGKLDQKLRWVEEFVRLTEHPSGSDLIYYPRDDREDSPEGIVKEIKEWRAANGKSGFKQGLEHHHHHH
# Experiments:
# [1] = target: colE^des8; test: SPR
# [2] = target: T1, Im^des7; test: SPR; two-state reaction fit, koff1
# [3] = target: T1, Im^des7; test: SPR; two-state reaction fit, koff2
# [4] = target: colE of designed pair 6 (cognate colE of Im^des6); test: SPR; two-state reaction fit, koff1
# [5] = target: colE of designed pair 6 (cognate colE of Im^des6); test: SPR; two-state reaction fit
# [6] = target: colE of designed pair 6 (cognate colE of Im^des6); test: SPR; two-state reaction fit, koff2
# [7] = target: T2, Im^wt2; test: SPR
# [8] = target: T2, Im^wt2; test: value from previous stopped-flow measurements
# [9] = target: T2, Im^wt2; test: SPR
# [10] = target: colE of designed pair 5 (cognate colE of Im^des5); test: SPR; two-state reaction fit, koff1
# [11] = target: colE of designed pair 5 (cognate colE of Im^des5); test: SPR; two-state reaction fit
# [12] = target: colE of designed pair 5 (cognate colE of Im^des5); test: SPR; two-state reaction fit, koff2
# [13] = target: colE^des2; test: SPR
# [14] = target: T2, Im^wt2; test: SPR
# [15] = target: T3, Im^des8; test: SPR
# [16] = target: T4, Im^des3; test: SPR
# [17] = target: colE^des1; test: SPR
binder,measurement,setting,value
B1,Kd,[1],> 100000 nM
B2,koff,[2],0.014 s⁻¹
same,koff,[3],0.0014 s⁻¹
B3,koff,[4],0.29 s⁻¹
same,Kd,[5],161 nM
same,koff,[6],0.00026 s⁻¹
B4,Kd,[7],< 0.1 nM
same,Kd,[8],0.004 pM
same,koff,[9],0.00016 s⁻¹
B5,koff,[10],0.023 s⁻¹
same,Kd,[11],35 nM
same,koff,[12],0.0011 s⁻¹
B6,Kd,[13],0.32 nM
same,koff,[13],0.00041 s⁻¹
B7,Kd,[14],> 100000 nM
same,Kd,[15],> 100000 nM
same,koff,[16],0.019 s⁻¹
B8,koff,[17],0.00033 s⁻¹
